Patent US12649772B2

Target: myelin basic protein peptide on HLA-DRB1*15:01 (human)
Assay: estimate stated in the description; not measured in this filing

Work on Ob.1A12 yielded a Kd of over 100 µM.
